Data as given in patent US9012420B2, “Aptamer for chymase, and use thereof” (Ribomic Inc., priority 2009, dated 2015).
Oligonucleotides are written 5' to 3', each unit as a sugar letter and its base; * is a phosphorothioate linkage, no mark a phosphodiester; rarer units and linkages stand in square brackets, end groups in braces. Plain capitals give the bases only. r = 2'-OH (RNA); f = 2'-fluoro

Tests used:
[1] = target: T1, chymase (recombinant) (UniProt P23946 P23946:22-247); test: inhibition; SPR ++; settings: tags: SIGMA, expressed in yeast
T1 sequence: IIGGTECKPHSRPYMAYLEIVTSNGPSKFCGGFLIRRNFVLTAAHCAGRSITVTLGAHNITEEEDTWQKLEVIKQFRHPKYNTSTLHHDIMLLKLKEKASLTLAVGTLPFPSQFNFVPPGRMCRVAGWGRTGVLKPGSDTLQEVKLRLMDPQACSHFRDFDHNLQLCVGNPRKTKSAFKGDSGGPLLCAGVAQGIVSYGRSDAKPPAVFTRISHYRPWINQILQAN
Method: (§1) Here, Suc is a protecting succinyl group, and MCA is a 4-methylcoumaryl-7-amide group; upon cleavage of the C-terminal side of phenylalanine, AMC (7-amino-4-methyl-coumarine) is released. By detecting the fluorescence of this AMC, the enzyme activity of chymase can be determined. The assay was performed using a 96-well plate (F16 Black Maxisorp Fluoronunc, manufactured by Nunc), with a reaction mixture volume of 100 μL, in solution C as a buffer solution. First, each nucleic acid was serially diluted to 0.0027-2 μM concentrations in solution C to obtain 50 μL solutions. After 10 μL of the 1 mM substrate prepared in solution C was added thereto, the plate was set to the microplate reader SpectraMax190 (manufactured by Molecular Devices Corporation), and incubated at 37° C. for 5 minutes. Separately, 0.05 μg (or 0.005 μg) of chymase (recombinant, manufactured by SIGMA) was diluted in solution C to obtain a 40 μL chymase solution, and incubated at 37° C. for 5 minutes. The chymase solution was added to the mixture of the nucleic acid and substrate to initiate an enzyme reaction. The final chymase concentration in the reaction mixture was 16.7 nM (or 1.67 nM), the final substrate concentration being 100 μM. The plate containing the reaction mixture was set to the microplate reader SpectraMax190 (manufactured by Molecular Devices Corporation), and examined for time-dependent changes in the fluorescence intensity at 37° C. for 5 minutes (or 30 minutes) (excitation wavelength 380 nm, detection wavelength 460 nm). A linear approximation of the increase in the fluorescence of the AMC released from the substrate by chymase activity was generated, and its slope was taken as the initial velocity […]. For control, samples were treated and analyzed in the same manner in two cases: use of a 30N or 40N (a nucleotide of 30 or 40 consecutive bases represented by N; N is A, G, C or T) nucleic acid pool (negative control), and use of chymostatin, a known chymotrypsin-like serine protease inhibitor (positive control). Taking the initial reaction velocity without the nucleic acid and inhibitor (V_0) as a 100% enzyme activity, the inhibitory rate of each test substance was calculated using the following equation: […]
The chymase inhibitory activity was measured in the same manner as in Example 3.

[2] = target: T1, chymase (recombinant); test: inhibition; SPR ++ (Table 2); settings: tags: SIGMA, expressed in yeast
Method: as §1

[3] = target: T2, chymase (recombinant, manufactured by SIGMA) (Homo sapiens, UniProt P23946); test: Chymase inhibitory activity using synthetic substrate Suc-Ala-Ala-Pro-Phe-MCA; format: biochemical; settings: Table 3; substrate 100 μM, solution C, 37° C.; mean value for 2 to 3 measurements
T2 construct: purchased SIGMA; host or cells: yeast
T2 sequence (P23946 22-247): T1 sequence
In short: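 Human recombinant chymase (16.7 nM or 1.67 nM final) preincubated 5 min at 37° C., then added to nucleic acid (0.0027–2 μM serial dilutions) and 100 μM substrate in solution C. AMC fluorescence (ex 380/em 460 nm) followed 5 or 30 min at 37° C.; slope gives initial velocity, inhibition versus no-inhibitor control yields IC50.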

[4] = target: T3, chymase (Homo sapiens, UniProt P23946); test: Surface plasmon resonance (Biacore T100), aptamer immobilized on SA chip, chymase injected as analyte; format: binding; set-up: key: ++: a sequence that binds to chymase significantly more strongly than the negative control 30N; settings: Table 2; same manner as Example 1, running buffer solution C; compared with 30N
T3 sequence (P23946 22-247): T1 sequence
Method: (§2) Binding strength is measured using Biacore T100 (manufactured by GE Healthcare). In a method of measurement, the aptamer is first immobilized onto a sensor chip, the amount immobilized being about 1000 RU. 20 μL of a chymase solution for analyte, prepared at 0.2 μM, is injected, and the binding of chymase to the aptamer is detected. An RNA comprising a random nucleotide sequence of 30 or 40 nucleotides is used as a negative control.
(§3) The binding activities against chymase of the nucleic acids shown by SEQ ID NO: 4-20 and 22-34 were determined by the surface plasmon resonance method using Biacore T100 (manufactured by GE Healthcare). The sensor chip used was the SA chip, which had streptavidin immobilized thereon. Bound thereto was about 1500 RU of a 16-nucleotide Poly dT with biotin bound to the 5′ end thereof. […] 20 μL of chymase for analyte, prepared at 0.2 μM, was injected. Solution A was used as a running buffer.
(§4) The binding activities against chymase of the nucleic acids shown by SEQ ID NO: 38-48 were evaluated by the surface plasmon resonance method. In the evaluations for SEQ ID NO: 38-48, measurements were taken in the same manner as Example 1. Solution C was used as a running buffer.

[5] = target: T3, chymase; test: as above; format: binding; settings: Table 1; about 1000 RU nucleic acid immobilized, chymase 0.2 μM analyte, running buffer solution A; compared with 40N
Method: as §2, §3, §4

B1: 56(38) (ssRNA)
RNA: GGGUUAGAUAGAGUUAAAAACCC
modifications: idT-G(M)G(M)G(M)U(F)U(F)sAsGAU(F)A(M)GAG(M)U(F)U(F)A(M)A(M)A(M)A(M)A(M)C(F)C(F)C(F)-idT (M=2'-OMe, F=2'-F, s=PS)
Q: For B1, which IC50 [1] is on record?
A: 19 nM

B2: SEQ 72 (mixed)
mixed: GGGTTAGAUAGAGTUAAAAACCC
modifications: idT-G(M)G(M)G(M)ttAG(M)A(M)U(F)A(M)GAG(M)tU(F)A(M)A(M)A(M)A(M)A(M)ccc-idT (lower case DNA)
Q: How did the IC50 [1] turn out when B2 was run?
A: 20 nM

B3: SEQ 41 (ssRNA)
RNA: GGGAGCAGGAGAGAGGUCAGAUGGUGAGAUAGAGUUAAACACCACAAUAGUAGCCUAUGCGUGCUAGUGUGA
modifications: 2'-F pyrimidines
Q: B3 was tested. Which IC50 [2] did it give?
A: 60 nM

B4: 41 (nucleic acid)
chain: B3 RNA
modifications: aptamer; 2'-fluoro at CU, RNA at AG, backbone not given here
Q: Which results are given for B4?
A: IC50 [3]: 60 ± 17 nM; Binding activity as determined using Biacore [4]: ++

B5: 56(32) (ssRNA)
RNA: GGGUUAGAUAGAGUUAAAAACCC
modifications: idT-G(M)G(M)G(M)U(F)U(F)AGAU(F)A(M)GAG(M)U(F)U(F)A(M)A(M)A(M)A(M)A(M)C(F)C(F)C(F)-idT (M=2'-OMe, F=2'-F)
Q: For B5, which IC50 [1] is on record?
A: 17 nM

B6: GGGACGGUAGGAAUUCAGCUGACUCCAAUGCACACGUAGAUAGAGUUAAAACGUUGCAUAGAAGAGCGGCCGC (nucleic acid)
chain: rGrGrGrAfCrGrGfUrArGrGrArAfUfUfCrArGfCfUrGrAfCfUfCfCrArAfUrGfCrAfCrAfCrGfUrArGrAfUrArGrArGfUfUrArArArAfCrGfUfUrGfCrAfUrArGrArArGrArGfCrGrGfCfCrGfC
modifications: aptamer
Q: With B6 as the molecule, how does the “Binding activity as determined using Biacore” value (from here on “Binding activity as determined”) [5] read?
A: higher binding activity than 40N

B7: SEQ 70 (mixed)
mixed: GGGTTAGAUAGAGUUAAAAACCC
modifications: idT-G(M)G(M)G(M)ttAG(M)A(M)U(F)A(M)GAG(M)U(F)U(F)A(M)A(M)A(M)A(M)A(M)C(F)C(F)C(F)-idT (lower case DNA)
Q: How did the IC50 [1] turn out when B7 was run?
A: 27 nM

B8: SEQ 40 (ssRNA)
RNA: GGGAGCAGGAGAGAGGUCAGAUGAACGGAUAGAGCUAAGAGUUCGUCAGAGGGGCCUAUGCGUGCUAGUGUGA
modifications: 2'-F pyrimidines
Q: How did the IC50 [2] turn out when B8 was run?
A: 140 nM

B9: GGGACGGUAGGAAUUCGUCCCUCAUGUCUAUUUUGCAGAUAGACUUAAAGCAAACAUAGAAGAGCGGCCGC (nucleic acid)
chain: rGrGrGrAfCrGrGfUrArGrGrArAfUfUfCrGfUfCfCfCfUfCrAfUrGfUfCfUrAfUfUfUfUrGfCrArGrAfUrArGrAfCfUfUrArArArGfCrArArAfCrAfUrArGrArArGrArGfCrGrGfCfCrGfC
Q: B9 was tested. Which “Binding activity as determined” value [5] did it give?
A: equivalent binding activity compared with 40N

B10: GGGACGGUAGGAAUUCCGCAACCAUCCCGUAACUAUGGUUAGAUAGAGUUAAAAACCAUAGAAGAGCGGCCGC (nucleic acid)
chain: GGGACGGUAGGAAUUCCGCAACCAUCCCGUAACUAUGGUUAGAUAGAGUUAAAAACCAUAGAAGAGCGGCCGC
modifications: chemistry not given here
Q: For B10, which “Binding activity as determined” value [5] is on record?
A: higher binding activity than 40N

B11: GGGACGGUAGGAAUUCGUCGAUUCUACAGAUAGAGAUAAAGUAGAAUUUAACAAAACAUAGAAGAGCGGCCGC (nucleic acid)
chain: rGrGrGrAfCrGrGfUrArGrGrArAfUfUfCrGfUfCrGrAfUfUfCfUrAfCrArGrAfUrArGrArGrAfUrArArArGfUrArGrArAfUfUfUrArAfCrArArArAfCrAfUrArGrArArGrArGfCrGrGfCfCrGfC
modifications: aptamer
Q: B11 was tested. Which “Binding activity as determined” value [5] did it give?
A: higher binding activity than 40N

B12: GGGACGGUAGGAAUUCGUCCAUUCUACAGAUAGAGAUAAAGUAGAAUUUAACAAAACAUAGAAGAGCGGCCGC (nucleic acid)
chain: rGrGrGrAfCrGrGfUrArGrGrArAfUfUfCrGfUfCfCrAfUfUfCfUrAfCrArGrAfUrArGrArGrAfUrArArArGfUrArGrArAfUfUfUrArAfCrArArArAfCrAfUrArGrArArGrArGfCrGrGfCfCrGfC
Q: For B12, which “Binding activity as determined” value [5] is on record?
A: higher binding activity than 40N

B13: SEQ 42 (ssRNA)
RNA: GGGAGCAGGAGAGAGGUCAGAUGCGUGAUCGUGCAAGGCGGAUAGAGUUAAGGCCUAUGCGUGCUAGUGUGA
modifications: 2'-F pyrimidines
Q: Which IC50 [2] does the source give for B13 here?
A: 124 nM

B14: SEQ 48 (ssRNA)
RNA: GGGAGCAGGAGAGAGGUCAGAUGUGAAGAUAGAGAUAAAUCACAUACAGUCGGCCUAUGCGUGCUAGUGUGA
modifications: 2'-F pyrimidines
Q: With B14 as the molecule, how does the IC50 [2] read?
A: 95 nM
